Test [1] addresses Solanum lycopersicum (tomato) NRC2, full-length, purified from insect cells (Solanum lycopersicum (tomato)). The experiment in a line: cryo-EM structure; apparently dimeric SlNRC2 specimen, 0.7 mg ml^-1; dimer at 2.84 Å and tetramer at 3.17 Å from one data set, C2 symmetry.
The target is the same in test [2]. Kind of test: SEC; gel filtration of purified SlNRC2 after removal of MBP; Buffer E (10 mM Tris-HCl pH 8.0, 150 mM NaCl, 1 mM dithiothreitol); Superdex 200 Increase 10/300 GL.
For test [3], the target named is SlNRC2-Twin-Strep-HA (Solanum lycopersicum (tomato)). The experiment in a line: native gel or EMSA; Blue Native-PAGE (3-12% Bis-Tris) of SlNRC2-Twin-Strep-HA variants eluted from Strep-Tactin XT resin out of nrc2/3/4 N. benthamiana leaf extract; immunoblot. On the technique in general: Mobility shift assays separate free from complexed probe on a gel.

Values joined by “and” are separate entries in the source; they are usually repeats but may differ in a detail not shown here. Equal values may be shown once.

Usually stoichiometry N stands for the number of molecules, sites or subunits per partner or assembly.

Take “Solanum lycopersicum (tomato) NRC2, full-length, purified from insect cells (natural protein)”: the stoichiometry N in test [1] is 2 and 4; in test [2] it was 2.

SlNRC2-Twin-Strep-HA (natural protein): the stoichiometry N in test [3] is 2 and 4.

These data come from article PMC11338831.
